The values below come from PMC9687537.

The chains are these.
B1: GFP–WDR34-WT [human] / LIC3 [human (endogenous in RPE1)] (parent)
chain 1: MATRAQPGPLSQAGSAGVAALATVGVASGPGPGRPGPLQDETLGVASVPSQWRAVQGIRWETKSCQTASIATASASAQARNHVDAQVQTEAPVPVSVQPPSQYDIPRLAAFLRRVEAMVIRELNKNWQSHAFDGFEVNWTEQQQMVSCLYTLGYPPAQAQGLHVTSISWNSTGSVVACAYGRLDHGDWSTLKSFVCAWNLDRRDLRPQQPSAVVEVPSAVLCLAFHPTQPSHVAGGLYSGEVLVWDLSRLEDPLLWRTGLTDDTHTDPVSQVVWLPEPGHSHRFQVLSVATDGKVLLWQGIGVGQLQLTEGFALVMQQLPRSTKLKKHPRGETEVGATAVAFSSFDPRLFILGTEGGFPLKCSLAAGEAALTRMPSSVPLRAPAQFTFSPHGGPIYSVSCSPFHRNLFLSAGTDGHVHLYSMLQAPPLTSLQLSLKYLFAVRWSPVRPLVFAAASGKGDVQLFDLQKSSQKPTVLIKQTQDESPVYCLEFNSQQTQLLAAGDAQGTVKVWQLSTEFTEQGPREAEDLDCLAAEVAA
chain 2: MPSETLWEIAKAEVEKRGINGSEGDGAEIAEKFVFFIGSKNGGKTTIILRCLDRDEPPKPTLALEYTYGRRAKGHNTPKDIAHFWELGGGTSLLDLISIPITGDTLRTFSLVLVLDLSKPNDLWPTMENLLQATKSHVDKVIMKLGKTNAKAVSEMRQKIWNNMPKDHPDHELIDPFPVPLVIIGSKYDVFQDFESEKRKVICKTLRFVAHYYGASLMFTSKSEALLLKIRGVINQLAFGIDKSKSICVDQNKPLFITAGLDSFGQIGSPPVPENDIGKLHAHSPMELWKKVYEKLFPPKSINTLKDIKDPARDPQYAENEVDEMRIQKDLELEQYKRSSSKSWKQIELDS
B2: GFP–WDR34-WT [human] / DYNLL2 [human (endogenous in RPE1)] (parent)
chain 1: B1 chain 1
chain 2: not shown
B3: GFP–WDR34-WT [human] / WDR60 [human (endogenous in RPE1)] (parent)
chain 1: B1 chain 1
chain 2: MEPGKRRTKDDTWKADDLRKHLWAIQSGGSKEERKHREKKLRKESEMDLPEHKEPRCRDPDQDARSRDRVAEVHTAKESPRGERDRDRQRERRRDAKDREKEKLKEKHREAEKSHSRGKDREKEKDRRARKEELRQTVAHHNLLGQETRDRQLLERAERKGRSVSKVRSEEKDEDSERGDEDRERRYRERKLQYGDSKDNPLKYWLYKEEGERRHRKPREPDRDNKHREKSSTREKREKYSKEKSNSFSDKGEERHKEKRHKEGFHFDDERHQSNVDRKEKSAKDEPRKRESQNGEHRNRGASSKRDGTSSQHAENLVRNHGKDKDSRRKHGHEEGSSVWWKLDQRPGGEETVEIEKEETDLENARADAYTASCEDDFEDYEDDFEVCDGDDDESSNEPESREKLEELPLAQKKEIQEIQRAINAENERIGELSLKLFQKRGRTEFEKEPRTDTNSSPSRASVCGIFVDFASASHRQKSRTQALKQKMRSTKLLRLIDLDFSFTFSLLDLPPVNEYDMYIRNFGKKNTKQAYVQCNEDNVERDIQTEEIETREVWTQHPGESTVVSGGSEQRDTSDAVVMPKIDTPRLCSFLRAACQVMAVLLEEDRLAAEPSWNLRAQDRALYFSDSSSQLNTSLPFLQNRKVSSLHTSRVQRQMVVSVHDLPEKSFVPLLDSKYVLCVWDIWQPSGPQKVLICESQVTCCCLSPLKAFLLFAGTAHGSVVVWDLREDSRLHYSVTLSDGFWTFRTATFSTDGILTSVNHRSPLQAVEPISTSVHKKQSFVLSPFSTQEEMSGLSFHIASLDESGVLNVWVVVELPKADIAGSISDLGLMPGGRVKLVHSALIQLGDSLSHKGNEFWGTTQTLNVKFLPSDPNHFIIGTDMGLISHGTRQDLRVAPKLFKPQQHGIRPVKVNVIDFSPFGEPIFLAGCSDGSIRLHQLSSAFPLLQWDSSTDSHAVTGLQWSPTRPAVFLVQDDTSNIYIWDLLQSDLGPVAKQQVSPNRLVAMAAVGEPEKAGGSFLALVLARASGSIDIQHLKRRWAAPEVDECNRLRLLLQEALWPEGKLHK

In the first test the parent is B1. The test can be described thus: GFP-trap purification, TMT-labelling and mass spectrometry. The note with it: with LIC3 [human (endogenous in RPE1)]; RPE1 WDR34 KO cell lines expressing GFP proteins, serum-starved for 24 h; read off a plot.
chain 1 MATRAQPGPLSQAGSAGVAALATVGVASGPGPGRPGPLQDETLGVASVPSQWRAVQGIRWETKSCQTASIATASASAQARNHVDAQVQTEAPVPVSVQPPSQYDIPRLAAFLRRVEAMVIRELNKNWQSHAFDGFEVNWTEQQQMVSCLYTLGYPPAQAQGLHVTSISWNSTGSVVACAYGRLDHGDWSTLKSFVCAWNLDRRDLRPQQPSAVVEVPSAVLCLAFHPTQPSHVAGGLYSGEVLVWDLSRLEDPLLWRTGLTDDTHTDPVSQVVWLPEPGHSHRFQVLSVATDGKVLLWQGIGVGQLQLTEGFALVMQQLPRSTKLKKHPRGETEVGATAVVFSSFDPRLFILGTEGGFPLKCSLAAGEAALTRMPSSVPLRAPAQFTFSPHGGPIYSVSCSPFHRNLFLSAGTDGHVHLYSMLQAPPLTSLQLSLKYLFAVRWSPVRPLVFAAASGKGDVQLFDLQKSSQKPTVLIKQTQDESPVYCLEFNSQQTQLLAAGDAQGTVKVWQLSTEFTEQGPREAEDLDCLAAEVAA [chain 1 A341V]: the ratio to parent came out at 2.2.

In the next test the parent is B2. The description is as above. To be noted: with DYNLL2 [human (endogenous in RPE1)]; RPE1 WDR34 KO cell lines expressing GFP proteins, serum-starved for 24 h; read off a plot.
Take chain 1 T354M: the ratio to parent is 1.5.

The variants in the next test derive from B3. The test is described as above. The note with it: with WDR60 [human (endogenous in RPE1)]; RPE1 WDR34 KO cell lines expressing GFP proteins, serum-starved for 24 h; read off a plot.
chain 1 MATRAQPGPLSQAGSAGVAALATVGVASGPGPGRPGPLQDETLGVASVPSQWRAVQGIRWETKSCQTASIATASASAQARNHVDAQVQTEAPVPVSVQPPSQYDIPRLAAFLRRVEAMVIRELNKNWQSHAFDGFEVNWTEQQQMVSCLYTLGYPPAQAQGLHVTSISWNSTGSVVACAYGRLDHGDWSTLKSFVCAWNLDRRDLRPQQPSAVVEVPSAVLCLAFHPTQPSHVAGGLYSGEVLVWDLSRLEDPLLWRTGLTDDTHTDPVSQVVWLPEPGHSHRFQVLSVATDGKVLLWQGIGVGQLQLTEGFALVMQQLPRSTKLKKHPRGETEVGATAVVFSSFDPRLFILGTEGGFPLKCSLAAGEAALTRMPSSVPLRAPAQFTFSPHGGPIYSVSCSPFHRNLFLSAGTDGHVHLYSMLQAPPLTSLQLSLKYLFAVRWSPVRPLVFAAASGKGDVQLFDLQKSSQKPTVLIKQTQDESPVYCLEFNSQQTQLLAAGDAQGTVKVWQLSTEFTEQGPREAEDLDCLAAEVAA [chain 1 A341V]: the ratio to parent worked out at 1.3. For chain 1 MATRAQPGPLSQAGSAGVAALATVGVASGPGPGRPGPLQDETLGVASVPSQWRAVQGIRWETKSCQTASIATASASAQARNHVDAQVQTEAPVPVSVQPPSQYDIPRLAAFLRRVEAMVIRELNKNWQSHAFDGFEVNWTEQQQMVSCLYTLGYPPAQAQGLHVTSISWNSTGSVVACAYGRLDHGDWSTLKSFVCAWNLDRRDLRPQQPSAVVEVPSAVLCLAFHPTQPSHVAGGLYSGEVLVWDLSRLEDPLLWRTGLTDDTHTDPVSQVVWLPEPGHSHRFQVLSVATDGKVLLWQGIGVGQLQLTEGFALVMQQLPRSTKLKKHPRGETEVGATAVAFSSFDPRLFILGTEGGFPLKCSLAAGEAALTRMPSSVPLRAPAQFTFSPHGGPIYSVSCSPFHRNLFLSAGTDGHVHLYSMLQAPPLTSLQLSLRYLFAVRWSPVRPLVFAAASGKGDVQLFDLQKSSQKPTVLIKQTQDESPVYCLEFNSQQTQLLAAGDAQGTVKVWQLSTEFTEQGPREAEDLDCLAAEVAA [chain 1 K436R], the ratio to parent stood at 1.4. Same read-out and setting: under chain 1 MATRAQPGPLSQAGSAGVAALATVGVASGPGPGRPGPLQDETLGVASVPSQWRAVQGIRWETKSCQTASIATASASAQARNHVDAQVQTEAPVPVSVQPPSQYDIPRLAAFLRRVEAMVIRELNKNWQSHAFDGFEVNWTEQQQMVSCLYTLGYPPAQAQGLHVTSISWNSTGSVVACAYGRLDHGDWSTLKSFVCAWNLDRRDLCPQQPSAVVEVPSAVLCLAFHPTQPSHVAGGLYSGEVLVWDLSRLEDPLLWRTGLTDDTHTDPVSQVVWLPEPGHSHRFQVLSVATDGKVLLWQGIGVGQLQLTEGFALVMQQLPRSTKLKKHPRGETEVGATAVAFSSFDPRLFILGTEGGFPLKCSLAAGEAALTRMPSSVPLRAPAQFTFSPHGGPIYSVSCSPFHRNLFLSAGTDGHVHLYSMLQAPPLTSLQLSLKYLFAVRWSPVRPLVFAAASGKGDVQLFDLQKSSQKPTVLIKQTQDESPVYCLEFNSQQTQLLAAGDAQGTVKVWQLSTEFTEQGPREAEDLDCLAAEVAA [chain 1 R206C] stands 1.5; under chain 1 MATRAQPGPLSQAGSAGVAALATVGVASGPGPGRPGPLQDETLGVASVPSQWRAVQGIRWETKSCQTASIATASASAQARNHVDAQVQTEAPVPVSVQPPSQYDIPRLAAFLRRVEAMVIRELNKNWQSHAFDGFEVNWTEQQQMVSCLYTLGYPPAQAQGLHVTSISWNSTGSVVACAYGWLDHGDWSTLKSFVCAWNLDRRDLRPQQPSAVVEVPSAVLCLAFHPTQPSHVAGGLYSGEVLVWDLSRLEDPLLWRTGLTDDTHTDPVSQVVWLPEPGHSHRFQVLSVATDGKVLLWQGIGVGQLQLTEGFALVMQQLPRSTKLKKHPRGETEVGATAVAFSSFDPRLFILGTEGGFPLKCSLAAGEAALTRMPSSVPLRAPAQFTFSPHGGPIYSVSCSPFHRNLFLSAGTDGHVHLYSMLQAPPLTSLQLSLKYLFAVRWSPVRPLVFAAASGKGDVQLFDLQKSSQKPTVLIKQTQDESPVYCLEFNSQQTQLLAAGDAQGTVKVWQLSTEFTEQGPREAEDLDCLAAEVAA [chain 1 R182W], 1.7.
